Test results reported in article PMC5982823, “The Pseudokinase Domain of Saccharomyces cerevisiae Tra1 Is Required for Nuclear Localization and Incorporation into the SAGA and NuA4 Complexes” (G3: Genes|Genomes|Genetics, 2018).
Blank lines part the entries; values can stand above or below the molecule they belong to.

Assays:
Assay in all cases: affinity purification with mass spectrometry; tandem affinity purification of TAP-tagged Epl1 or Ada2 from lysates of TRA1 or tra1 Q3 strains (260 mg or 170 mg protein): IgG beads 2 h at 4°, IPP150 (10 mM Tris-HCl pH 8.0, 150 mM NaCl), TEV cleavage, calmodulin beads, EGTA elution; SDS-PAGE, Coomassie Brilliant Blue; bands identified by MALDI mass spectrometry or predicted from mass; band intensity by ImageJ
[1] = target: TAP-tagged Epl1 (S. cerevisiae) (UniProt P43572)
TAP-tagged Epl1 (S. cerevisiae), sequence (P43572 whole entry): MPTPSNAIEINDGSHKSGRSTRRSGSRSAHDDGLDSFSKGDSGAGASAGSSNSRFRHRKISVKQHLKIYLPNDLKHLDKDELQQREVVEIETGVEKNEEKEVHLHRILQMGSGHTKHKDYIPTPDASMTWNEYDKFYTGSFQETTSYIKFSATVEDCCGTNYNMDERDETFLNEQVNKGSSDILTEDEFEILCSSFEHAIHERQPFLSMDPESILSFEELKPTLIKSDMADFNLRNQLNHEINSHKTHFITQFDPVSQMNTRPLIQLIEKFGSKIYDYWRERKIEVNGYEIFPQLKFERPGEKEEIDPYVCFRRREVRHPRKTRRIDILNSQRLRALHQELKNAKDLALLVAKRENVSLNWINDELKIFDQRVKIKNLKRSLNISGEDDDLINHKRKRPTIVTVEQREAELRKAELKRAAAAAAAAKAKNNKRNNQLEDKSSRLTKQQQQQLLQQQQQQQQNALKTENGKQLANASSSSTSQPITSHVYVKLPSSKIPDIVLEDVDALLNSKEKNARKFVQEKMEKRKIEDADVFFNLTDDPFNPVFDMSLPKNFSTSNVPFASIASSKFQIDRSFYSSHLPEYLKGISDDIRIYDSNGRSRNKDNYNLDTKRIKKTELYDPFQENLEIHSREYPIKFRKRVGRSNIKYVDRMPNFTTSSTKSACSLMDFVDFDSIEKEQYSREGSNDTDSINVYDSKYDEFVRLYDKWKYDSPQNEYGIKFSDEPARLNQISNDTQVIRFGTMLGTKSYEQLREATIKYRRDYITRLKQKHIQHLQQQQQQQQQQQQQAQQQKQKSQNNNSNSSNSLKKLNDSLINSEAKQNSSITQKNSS

[2] = target: TAP-tagged Ada2 (S. cerevisiae) (UniProt Q02336)
TAP-tagged Ada2 = target: T1, TAP-tagged Ada2 (S. cerevisiae, UniProt Q02336 1-434); details: partners not purified
T1 construct: Ada2, SAGA component, S. cerevisiae; TAP-tagged ADA2; Held on IgG beads, released with TEV protease, then held on calmodulin beads, so part of the TAP tag is cut off during the purification; also called TAP-Ada2; TAP-ADA2; source: S. cerevisiae strain with TAP-tagged ADA2 (bought: Open Biosystems YSC1178-202230655; crossed with CY6582 for the tra1 Q3 strain CY7042), in lysate of cells ground in …
T1 sequence (looked up): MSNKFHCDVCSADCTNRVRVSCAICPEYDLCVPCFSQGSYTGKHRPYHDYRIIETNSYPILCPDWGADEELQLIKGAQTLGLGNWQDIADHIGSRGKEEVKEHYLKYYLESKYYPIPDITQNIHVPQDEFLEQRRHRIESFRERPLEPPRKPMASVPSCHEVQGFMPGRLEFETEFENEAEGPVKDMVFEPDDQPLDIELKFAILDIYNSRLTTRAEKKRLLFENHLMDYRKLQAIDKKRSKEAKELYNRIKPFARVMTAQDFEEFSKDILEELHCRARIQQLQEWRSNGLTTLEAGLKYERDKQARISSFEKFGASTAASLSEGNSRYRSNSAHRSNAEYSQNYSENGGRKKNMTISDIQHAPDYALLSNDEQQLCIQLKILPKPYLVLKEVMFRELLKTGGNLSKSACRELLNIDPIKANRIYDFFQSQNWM

fold decrease against wild-type Tra1 [1]: 6.7 fold
fold decrease against wild-type Tra1 [2]: 6.5 fold
Molecule: Tra1 Q3 (R3389Q, R3390Q, R3456Q), P38811 1-3744

fold decrease of full length Spt20 in the TAP-Ada2 pull down, tra1 Q3 strain against the wild-type strain (TAP-tagged Ada2): 2.1 fold
B1: full length Spt20 (natural protein, UniProt P50875 1-604, looked up)
chain: MSANSPTGNDPHVFGIPVNATPSNMGSPGSPVNVPPPMNPAVANVNHPVMRTNSNSNANEGTRTLTREQIQQLQQRQRLLLQQRLLEQQRKQQALQNYEAQFYQMLMTLNKRPKRLYNFVEDADSILKKYEQYLHSFEFHIYENNYKICAPANSRLQQQQKQPELTSDGLILTKNNETLKEFLEYVARGRIPDAIMEVLRDCNIQFYEGNLILQVYDHTNTVDVTPKENKPNLNSSSSPSNNNSTQDNSKIQQPSEPNSGVANTGANTANKKASFKRPRVYRTLLKPNDLTTYYDMMSYADNARFSDSIYQQFESEILTLTKRNLSLSVPLNPYEHRDMLEETAFSEPHWDSEKKSFIHEHRAESTREGTKGVVGHIEERDEFPQHSSNYEQLMLIMNERTTTITNSTFAVSLTKNAMEIASSSSNGVRGASSSTSNSASNTRNNSLANGNQVALAAAAAAAAVGSTMGNDNNQFSRLKFIEQWRINKEKRKQQALSANINPTPFNARISMTAPLTPQQQLLQRQQQALEQQQNGGAMKNANKRSGNNATSNNNNNNNNLDKPKVKRPRKNAKKSESGTPAPKKKRMTKKKQSASSTPSSTTMS
notes: Spt20, S. cerevisiae, full length band in the TAP-Ada2 purification; source: endogenous, S. cerevisiae lysate
